“Also recorded” adds a separate entry of the source.
B1: N-terminal peptide (QEPGGLVVPPTDAPVSPTTLYVE) corresponding to vWF residues Q1238-E1260 (peptide)
peptide: H-QEPGGLVVPPTDAPVSPTTLYVE-OH
notes: Synthetic peptide; also called free N-terminal peptide; N-terminal linker peptide

Columns and labels:
Solubility (observation) = format: physicochemical
[1] = GdnHCl- and urea-induced unfolding at 25° C. by circular dichroism (Example 2); format: physicochemical; settings: GdnHCl, CD
Description: The thermodynamic stability of A1 and of RCAM A1 was determined from GdnHCl and urea induced unfolding measured via CD and FL at 25° Celsius (FIG. 14). […] Complete unfolding of A1 and of RCAM A1 occurs in GdnHCl but not in urea. However, in presence of urea, a small expansion of RCAM A1 compared to A1 in its intermediate state is observed.
(§1) Urea and GdnHCl induced unfolding of A1 and of RCAM A1 at 25° Celsius was monitored via CD at 222 nm on an Aviv Biomedical Model 420C circular dichroism spectrometer. A 1 mm quartz cuvette and protein concentrations of 5 or 10 μM were used. Samples were equilibrated in their urea or GdnHCl containing buffer at 25° Celsius overnight. CD-signal was averaged for 5 to 10 min using an integration time of 1 s. CD-spectra were measured at 20° Celsius using 0.1 or 1 mm quartz cells with a step width of 1 nm between 190 and 260 nm with an integration time of 20 s and a bandwidth of 1 nm. CD-spectra in the near UV range (260-360 nm) were recorded using a 5 cm quartz cell with a 120 s integration time. Transition curves and protein spectra were corrected for the CD Signal of the corresponding buffer.

[2] = Acrylamide quenching of tryptophan fluorescence (Stern-Volmer); format: physicochemical; settings: buffer, 20° Celsius
Description: This was also confirmed via acrylamide induced tryotophan fluorescence quenching performed with an excitation wavelength of 295 nm.
Initially a quenching determination was performed with disulfide-intact A1 at 20° Celsius and at 1° Celsius in order to distinguish between static and collisional quenching. […] Clear evidence for collisional quenching could be obtained for the A1-domain since the Stern-Volmer constant decreased from 2.6±0.03 to 2.2±0.03 M−1, FIG. 16A, ruling out a static quenching mechanism.
Acrylamide quenching of tryptophan was performed using an excitation wavelength of 295 nm. After the addition of a certain amount of buffered acrylamide solution the protein solution was equilibrated for ˜5 min and then a fluorescence spectrum between 320 and 400 nm was recorded. Stern-Volmer constants were determined from the fluorescence intensity at 359 nm using the Stern-Volmer equation as described by Lakowicz (Lakowicz:2006)
where KD is the Stern-Volmer quenching constant and KD-1 is the concentration of acrylamide at which F0/F=2 and 50% of the fluorescence intensity is quenched.

platelet GPIbα = biological target: T1, platelet GPIbα (Homo sapiens, UniProt P07359); test: Platelet adhesion to surface captured disulfide-intact A1 and RCAM A1 under shear flow (Example 2); format: cell-based
T1 construct: endogenous in cells; host or cells: platelets in citrated whole blood of normal healthy volunteer donors
Description: The interaction of disulfide-intact A1 and of RCAM A1 with platelets was studied by immobilizing the proteins via the 6×His-Tag on Cellix biochips in which the internal channel surface was coated with a Cu2+ chelating chemistry. A 5 μM concentration of protein was immobilized in the biochip and citrated whole blood was perfused at a shear rate of 800 s−1 (FIG. 11B). This perfusion was followed by TBS buffer and after red blood cells cleared the channel, the shear was decremented to 100 s−1 or incremented to 9000 s−1 every two minutes at logarithmic intervals. Surface bound platelets were allowed to equilibrate at a given shear rate for 50 s and a 60 s video at 24 frames per second was recorded and analyzed as described in the methods. The internal channel surface lacking immobilized A1 domain was completely inert to platelets.
At each shear rate, platelet mean pause times and mean translocation velocities were calculated from the X-Y trajectories of moving platelets as described in the methods. Approximately 1000 platelet trajectories were analyzed at each shear rate (FIGS. 11B to 11D). The mean pause times were also calculated from the pause time survival fraction obtained from the cumulative integral of the pause time distribution (FIG. 11B) (Thomas:2006). The survival fraction exponentially decreases with faster decay rates as shear increases. Fitting the survival fraction with a bi-exponential decay function results in the apparent rate constants and amplitudes as a function of shear rate (FIG. 11C).
The determination and analysis of platelet pause times and instantaneous translocation velocities over surface captured A1 and RCAM A1 was performed as previously described (Tischer:2013). Here, the inventor used the Cellix Mims Evo syringe pump controlled by VenaFluxAssay (www.cellixltd.com). Vena8™ CGS biochips were custom designed with 800 μm width by 80 μm height microchannels bonded to glass slides with a Cu^2+ chelated PEG surface serviced by Microsurfaces Inc. (www.proteinslides.com/histag.html) to which the A1 and RCAM A1 in TBS were captured by the 6×His-Tag at a total concentration of 5 μM. Citrated whole blood was obtained from the informed consent of healthy volunteer donors with approval from the Mayo Clinic Institutional Review Board and 100 μL was perfused over the surface captured A1 domains at […]. The shear was increased or decreased in a stepwise manner to measure the dynamics of platelet adhesion at high and low shear. After allowing the flow chamber to equilibrate for 50 s at each shear rate, 1 min movies were recorded at 24 frames per second in phase contrast at 200× magnification with 2×2 pixel binning on a Zeiss AxioCam Mrm camera (6.45 μm/px) attached to a Zeiss Axio Observer.D1 inverted microscope. Tracking analysis was performed using MediaCybernetics ImagePro® Premier (www.mediacy.com/index.aspx?page=IP\_Premier) The distance travelled in the direction of flow was calculated from the coordinate data for each platelet as a function of time using √{square root over ((xt−x0)^2)}, where x0 is the coordinates of a platelet on the first frame of the movie and xt is the coordinate on subsequent frames of the movie. These trajectories were differentiated into instantaneous velocities using a Savitzky-Golay algorithm (Savitzky:1964) with a five data point window size and a second order polynomial implemented into a Mathematica (www.wolfram.com/mathematica) notebook written in our lab. Trajectories were retained for statistical analysis if the platelet was present for ≧1 s and travelled a total distance greater than 1 Distance travelled in pixels (px) was converted to (μm) using 6.45 μm/px*2/200=0.0645 μm/px. Pause times were determined by the amount of time (sec) a platelets velocity was 0±4 px/s≅0±0.23 μm/s, within the noise. Data are reported as mean velocities and pause times attained by individual platelets averaged over all platelets analyzed. […]

[3] = Secondary structure contribution calculated from CD-spectra (CDNN); format: physicochemical; settings: calculated from CD-spectra, CDNN
Description: Fluorescence and circular dichroism spectra of A1 and of RCAM A1 were measured to compare the basic spectroscopic properties of the two protein variants (FIG. 13). The fluorescence spectrum of native A1 has a relatively low intensity with λmax of ˜345 nm. In presence of 2 M GdnHCl the fluorescence intensity increases as the interior of the protein becomes solvent accessible and a red shift of the spectrum to ˜351 nm occurs. […] Nevertheless, RCAM A1 is still retains significant secondary structure content in solution; the distribution of which is summarized in Table 1. In the near UV, the CD of disulfide-intact A1 show a well-defined spectral banding pattern between 260 and 300 nm indicating significant tertiary structure content that is absent in RCAM A1.
as §1

[4] = Irreversible thermal denaturation by CD, intrinsic fluorescence and ANS fluorescence (Example 2); format: physicochemical
Description: The unfolding of disulfide-intact A1 and RCAM A1 was also monitored via CD at 222 nm, intrinsic protein fluorescence at 280 nm/359 nm and ANS fluorescence at 350 nm/495 nm as a function of temperature.
CD thermalscans were recorded between 10 and 95° Celsius at 222 nm with a protein concentration of 1 μM in a 1 cm quartz cell under moderate stirring. Prior to each measurement protein samples were equilibrated at 10° Celsius for 10-15 min in order to obtain a stable baseline. The scanrate for all Thermalscans was 2° Celsius/min. The integration time for each data point was 20 s, the bandwidth 1 nm. All measured CD data were converted into mean molar ellipticities per amino acid residue.
Thermalscans monitoring protein fluorescence were recorded at an emission wavelength of 359 nm after excitation at 280 nm using a protein concentration of 2 μM in a 1 cm quartz cell under moderate stirring. ANS-Thermalscans were recorded at 495 nm after Excitation at 350 nm using 1 μM protein and 100 μM ANS. Prior to any performed thermalscan samples were equilibrated for 10-15 min. The scanrate was 2° Celsius/min. At each temperature between 10 or 20° Celsius and 95° Celsius relative fluorescence intensity was collected for 4 s and averaged.

[5] = biological target: T2, Recombinant human vWF A1-1261 (amino acids D1261-P1471), N-terminal truncated variant (human, UniProt P04275 1261-1471); test: thermal unfolding by Trp fluorescence, 0.02-300 µM peptide; value at saturating peptide
T2 construct: Lacks the linker residues Q1238-E1260; also called truncated A1
Description: (§2) The only way to examine such a stabilization using spectroscopy was the measurement of thermal unfolding via fluorescence. Since the N-terminal peptide also contains a single tyrosine residue, the excitation wavelength was changed to λ=295 nm in order to measure tryptophan fluorescence and the effect of the peptide on the unfolding of the A1-domain was observed indirectly. […] Thermal scans were also done in the presence of a peptide with the same amino acid composition, but a scrambled sequence. The inset of FIG. 7A compares the raw fluorescence thermal scans in the presence of 300 μM scrambled and N-terminal peptides. Unfolding in the presence of excess scrambled peptide was equivalent to unfolding in the absence of either peptide. […] Fitting the enthalpy data to a simple single site binding model yields a dissociation constant of ≈46±6 μM.

[6] = biological target: T2, Recombinant human vWF A1-1261 (amino …); test: thermal unfolding by Trp fluorescence at 2 °C/min; value without peptide
Description: as §2

[7] = biological target: T2, Recombinant human vWF A1-1261 (amino …); test: unfolding enthalpy from fluorescence thermal scans of 2 µM A1-1261 against total peptide concentration
Description: as §2

[8] = biological target: T2, Recombinant human vWF A1-1261 (amino …); test: thermal unfolding by Trp fluorescence, 0.02-300 µM peptide; value without peptide
Description: as §2

[9] = biological target: T2, Recombinant human vWF A1-1261 (amino …); test: thermal unfolding by Trp fluorescence at 2 °C/min; value at saturating peptide
Description: as §2

[10] = biological target: T3, Recombinant human vWF A1-1238 (amino acids Q1238-P1471) (human, UniProt P04275 1238-1471); test: unfolding enthalpy from fluorescence thermal scans of A1-1238 against total peptide concentration
T3 construct: captured on Cu2+ chelate surfaces by the His tag in the flow chamber assays; also called WT A1; disulfide-intact A1; not shown: N-terminal 6xHis-Tag from the Qiagen pQE-9 vector

[11] = biological target: T2, Recombinant human vWF A1-1261 (amino …); test: thermal unfolding enthalpy of 2 µM A1-1261 (Trp fluorescence) against peptide concentration, single site binding model
Description: as §2

| Molecule | Solubility (Solubility (observation)) | cm, I ⇄ D [1] [M] | m-value, I ⇄ D [1] [kJ/mol/M] | ΔG^0, I ⇄ D [1] [kcal/mol] | Stern-Volmer constant [2] [M⁻¹] | Total number of platelets interacting, relative to disulfide-intact A1 (platelet GPIbα) | Velocity of a platelet translocating on the domain (platelet GPIbα; 1025 s−1) | Platelet translocation on surface-immobilized domain (platelet GPIbα; all applied shear rates, up to 9000 s−1) | % α-Helix [3] [%] | % β-sheet [3] [%] | Cooperative thermal unfolding transition ([4]; CD, intrinsic fluorescence and ANS fluorescence) | Temperature at which protein aggregation begins in thermal scan ([4]; absence of urea) [° Celsius] | unfolding enthalpy of A1-1261 without and with saturating peptide [5] [kcal/mol] | apparent TM of A1-1261 without and with saturating peptide [6] [° Celsius] | EC50 (read off the curve) [7] [µM] | unfolding enthalpy of A1-1261 without and with saturating peptide [8] [kcal/mol] | apparent TM of A1-1261 without and with saturating peptide [9] [° Celsius] | binding result [10] | Kd [11] [µM] |
| --- | --- | --- | --- | --- | --- | --- | --- | --- | --- | --- | --- | --- | --- | --- | --- | --- | --- | --- | --- |
| RCAM A1: vWF A1 domain (Q1238-P1471) with disulfide bond reduced and carboxyamidated; molten globule model of intermediate state | low solubility | 3.83 ± 0.03 | −7.49 ± 0.49 | 6.857 ± 0.452 | 5.6 ± 0.4 | less, by approximately half | statistically zero | did not translocate across the surface at all applied shear rates; also recorded: firm adhesion with no platelet translocation | 25 | 22 | absent | ~40 |  |  |  |  |  |  |  |
| B1 |  |  |  |  |  |  |  |  |  |  |  |  | 57.8 | 53 | ~30 | 47.1 | 55.5 | no binding (tested: 100 µM) | ~46 |
